The values below come from patent publication US10000775B2, “Biosynthesis of 1-undecene and related terminal olefins” (The Regents of the University of California, priority 2013, dated 2018).

One series has as its system E. coli. The experiment in a line: 1-undecene production in E. coli overexpressing PFL_4321, PFL_0203 or homologs, with or without UcFatB2. Type of series: cell-based. Conditions: E. coli, one-day shake flask culture in LB media without exogenous lauric acid. The method, then: E. coli, P. aeruginosa PAO-1, and P. aeruginosa PA14 strains were grown in 5 mL of LB medium overnight at 37° C., while all the other Pseudomonas and Acinetobacter strains were grown at 30° C. […] The culture was shaken in a sealed 20 mL headspace vial (Agilent certified) containing a stir bar at 30° C. for 36 hr. After incubation, an SPME fiber (30 μm polydimethylsiloxane, Supelco, Sigma-Aldrich Group, Bellefonte, Pa.) was manually inserted into the headspace vial and incubated at 25° C. for 12.5 min. GC-MS analysis was conducted on a Varian CP-3800 instrument equipped with a Varian 320-MS. […] The signals of the 1-alkenes were identified and quantified by comparison with authentic samples (MP Biomedicals), which were diluted in ethyl acetate, added to 5 mL of culture medium in a sealed headspace vial, and sampled by the same SPME-GCMS method as described above.
[…] 1-Undecene production was detected by using the SPME-GCMS method. […]
To investigate whether PFL_0203 was facilitating the production of 1-undecene, this gene was individually expressed in E. coli and the cells were monitored for 1-undecene production. […]

Series [1] is described as follows: In vitro activity of PFL_4321 and PFL_0203 toward fatty acids with various chain lengths. Type of series: biochemical. Details: key to In vitro activity toward C8:0 / In vitro activity toward C10:0 / In vitro activity toward C12:0 / In vitro activity toward C14:0 / In vitro activity toward C16:0: ✓: indicates production of the corresponding 1-alkene from the indicated substrate; x: indicates failure to produce the corresponding 1-alkene from the indicated substrate. The method, then:
A typical condition is as follows: 1 mL of reaction mixture contains 50 mM MES buffer (pH 6.2), 300 mM NaCl, 100 μM (NH4)2Fe(SO4)2, 1 mM ascorbic acid, 100 μM fatty acid substrate or analogs, and 10 μM enzyme. The reaction was performed in a sealed headspace vial at 30° C., initiated by adding lauric acid and quenched by injecting equal volume of 5 M NaOH. 1-Undecene production was analyzed and quantified by using the SPME-GCMS method. To determine the kinetic parameters of PFL_4321 on lauric acid, initial velocities at 1, 10, 20, 50, 100, and 150 μM of lauric acid were measured (25 mM lauric acid solution was prepared by adding 0.5% tergitol and heating at 65° C. for 10 min). The reactions were quenched at 2, 4, 6, 8, and 10 seconds, and the acquired turnover rates were fit to the Michaelis-Menten equation using GraphPad Prism to obtain kcat and Km. The kcat and Km of myristic acid and capric acid were determined similarly.
Unless otherwise noted, all experiments with PFL_0203 as described herein were performed using similar assays, procedures, and techniques as used in a given corresponding experiment as described in Example 1.
The fatty acid substrate specificity of PFL_0203 was investigated in a series of in vitro experiments. […] Thus, PFL_4321 and PFL_0203 share some overlap in suitable substrates; PFL_4321 is able to act on C10-C14 fatty acid substrates, and PFL_0203 is able to act on C10-C16 fatty acid substrates.

The nature of series [2]: In vitro 1-undecene production by purified PFL_0203 with E. coli crude extract. Particulars: purified PFL_0203 mixed with E. coli crude extract and exogenous lauric acid. Type of series: biochemical.

B1: PFL_0203: hypothetical membrane-associated protein from Pseudomonas fluorescens Pf-5 converting C10-C16 fatty acids into 1-alkenes (protein, listed as Pseudomonas protegens)
chain: MQGISASPERMNAQQRAAHVRQVVLARGDELRRRFPLLRHQDALGAGILAFALSGMLGSALLYVTGHLAWWACLLLNAFFASLTHELEHDLIHSMYFRKQRLPHNLMLGLVWLARPSTINPWVRRHLHLNHHKVSGSESDIEERAITNGEPWGIARLLMVGDNMMAAFIRLLRAPGARRKLGILVRTLAVYAPLALLHWGAWYVFLGFHGANGVAALLGSPIQWSQDTASLMHYVDIAVVVIIGPNVLRTFCLHFVSSNMHYYGDIEPGNVIQQTQVLNPWWMWPLQAFCCNFGSTHGIHHFVVREPFYIRQMTASVAHKVMAEMGVRFNDFGTFARANRFTRQEREAMQPAHNARA
On to B1, for which, in the series on E. coli, the “titer of 1-undecene” value is approximately 0.2 µg/mL. For the same molecule, the “activity on C8 or C18 fatty acids” value in series [1] (in vitro, C8 or C18 fatty acids) is “failed to act”. Moreover, the “conversion of C10-C16 fatty acids into their corresponding [M-1] 1-alkenes” value in series [1] (in vitro, C10-C16 fatty acids) is given as “converted”. The “In vitro activity toward C8:0” value in series [1] (substrate C8:0) was “x”. Further, the “In vitro activity toward C10:0” value in series [1] (substrate C10:0) was “trace”. Also, in series [1] (substrate C12:0), the “In vitro activity toward C12:0” value was “✓”. Besides, the “In vitro activity toward C14:0” value in series [1] (substrate C14:0) was “✓”. In series [1] (substrate C16:0), the “In vitro activity toward C16:0” value was “trace”. Besides, the 1-undecene production entry in series [2] is reported as “resulted in 1-undecene production”.
